Reference: patent US20160031996A1 (CSL, published 2016)
Changes are numbered by the printed parent chain. Names may count otherwise. Values belong to the molecule of their own block, whether it stands above or below them.

Legend:
[1] = target: T1, full length human IL-3Rα, wild type (human, UniProt P26951 19-378); assay: flow cytometry, MFI normalised to WT (reference, set as 100%)
T1 construct: expressed in 293F cells; also called WT
T1 sequence: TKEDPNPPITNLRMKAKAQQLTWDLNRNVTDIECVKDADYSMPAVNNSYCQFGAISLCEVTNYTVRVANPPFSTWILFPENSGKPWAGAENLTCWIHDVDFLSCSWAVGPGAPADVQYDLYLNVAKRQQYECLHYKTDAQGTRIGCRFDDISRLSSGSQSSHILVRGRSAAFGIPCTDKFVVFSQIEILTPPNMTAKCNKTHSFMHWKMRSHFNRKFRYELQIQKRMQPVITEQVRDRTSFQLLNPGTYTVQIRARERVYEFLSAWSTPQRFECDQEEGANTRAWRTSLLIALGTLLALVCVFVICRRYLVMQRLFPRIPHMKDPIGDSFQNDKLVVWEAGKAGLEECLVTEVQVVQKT
Method: Median fluorescence intensity (MFI) of each antibody was determined for WT IL-3Rα and for each IL-3Rα mutant. The MFI of WT IL-3Rα staining for each antibody was set as 100% then the MFI of each mutant was normalized to a percent of WT staining.

[2] = target: human IL-3Rα S59A/P88T double mutant, full length (human) (UniProt P26951); assay: flow cytometry, MFI normalised to WT
[3] = target: human IL-3Rα E51Q/S59A/P88T triple mutant, full length (human) (UniProt P26951); assay: flow cytometry, MFI normalised to WT
[4] = target: human IL-3Rα E51Q/S59A double mutant, full length (human) (UniProt P26951); assay: flow cytometry, MFI normalised to WT
[5] = target: human IL-3Rα E51Q/P88T double mutant, full length (human) (UniProt P26951); assay: flow cytometry, MFI normalised to WT
[6] = target: T2, human IL-3 (human, UniProt P08700 20-152); assay: flow cytometry, 293F cells expressing mutant IL-3Rα and CD131
T2 sequence (looked up): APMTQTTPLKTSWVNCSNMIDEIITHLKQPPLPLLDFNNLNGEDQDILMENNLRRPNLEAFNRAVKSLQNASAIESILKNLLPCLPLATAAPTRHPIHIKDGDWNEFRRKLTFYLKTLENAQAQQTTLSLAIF
Method: STAT5 activity was measured by flow cytometry after intracellular staining with a phosphoSTAT5 antibody (pSTAT5).

binding result [6]: binds
B2: human IL-3Rα E51Q/P88T double mutant, full length (receptor)
chain: T1 sequence with E33Q, P70T

binding result [6]: binds
B3: human IL-3Rα S59A/P88T double mutant, full length (receptor)
chain: T1 sequence with S41A, P70T

binding result [6]: binds
B4: human IL-3Rα E51Q/S59A/P88T triple mutant, full length (receptor)
chain: T1 sequence with E33Q, S41A, P70T

Second part, the molecule before the results:

Molecule: anti-human IL-3Rα monoclonal antibody 9F5
MFI as percent of WT staining [1]: 100 % of WT MFI
MFI as percent of WT staining [2]: 95.6 % of WT MFI
MFI as percent of WT staining [3]: 32.7 % of WT MFI
MFI as percent of WT staining [4]: 87 % of WT MFI
MFI as percent of WT staining [5]: 70.1 % of WT MFI

B1: human IL-3Rα E51Q/S59A double mutant, full length (receptor)
chain: T1 sequence with E33Q, S41A
binding result [6]: binds
